How the values were obtained:
Assay in all cases: SPR
[1] = target: IgA1-Fc Fc (Homo sapiens) (UniProt P01876); settings: cited from earlier work
[2] = target: Hinge region glycopeptide (HR-GalNAc) (human)
[3] = target: monomeric IgA1Mce myeloma protein (human)
[4] = target: monomeric IgA1κ myeloma protein (human)
[5] = target: monomeric IgA1λ myeloma protein (human)
[6] = target: polymeric IgA1Ale myeloma protein (human)
[7] = target: polymeric IgA1Mce myeloma protein (human)
[8] = target: polymeric IgA1κ myeloma protein (human)
[9] = target: polymeric IgA1λ myeloma protein (human)

Sequence of IgA1-Fc Fc (Homo sapiens) (P01876 120-340): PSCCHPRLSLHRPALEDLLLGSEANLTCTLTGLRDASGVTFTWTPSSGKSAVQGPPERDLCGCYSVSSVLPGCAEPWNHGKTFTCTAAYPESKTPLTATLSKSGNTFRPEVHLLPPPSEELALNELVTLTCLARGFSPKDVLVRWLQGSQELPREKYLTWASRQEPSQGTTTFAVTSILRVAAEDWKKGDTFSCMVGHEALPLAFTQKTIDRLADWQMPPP
Sequence of FcαRI (P24071 22-287): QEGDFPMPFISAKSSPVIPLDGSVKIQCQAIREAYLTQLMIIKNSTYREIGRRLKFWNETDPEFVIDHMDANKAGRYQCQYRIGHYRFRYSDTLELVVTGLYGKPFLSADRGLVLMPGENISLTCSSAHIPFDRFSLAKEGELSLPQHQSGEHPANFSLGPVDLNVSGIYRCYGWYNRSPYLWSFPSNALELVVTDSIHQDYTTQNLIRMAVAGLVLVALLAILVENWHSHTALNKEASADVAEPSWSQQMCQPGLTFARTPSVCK

Substance: FcαRI (from UniProt P24071)
- Kd [1]: 9 nM

Substance: Helix aspersa agglutinin (natural protein)
- KD1 (two-site model, apparent) [2]: 0.11 µM
- KD2 (two-site model, apparent) [2]: 7 µM
- KD1 (two-site model, apparent) [3]: 7.2 µM
- KD2 (two-site model, apparent) [3]: 76 µM
- KD1 (two-site model, apparent) [4]: 1.8 µM
- KD2 (two-site model, apparent) [4]: 8 µM
- KD1 (two-site model, apparent) [5]: 6.2 µM
- KD2 (two-site model, apparent) [5]: 73 µM
- KD1 (two-site model, apparent) [6]: 1 µM
- KD2 (two-site model, apparent) [6]: 14 µM
- KD1 (two-site model, apparent) [7]: 5.6 µM
- KD2 (two-site model, apparent) [7]: 70 µM
- KD1 (two-site model, apparent) [8]: 1.7 µM
- KD2 (two-site model, apparent) [8]: 25 µM
- KD1 (two-site model, apparent) [9]: 3 µM
- KD2 (two-site model, apparent) [9]: 28 µM

Substance: Helix pomatia agglutinin (natural protein)
- KD1 (two-site model, apparent) [2]: 0.045 µM
- KD2 (two-site model, apparent) [2]: 2.3 µM
- KD1 (two-site model, apparent) [3]: 2.3 µM
- KD2 (two-site model, apparent) [3]: 24 µM
- KD1 (two-site model, apparent) [4]: 0.76 µM
- KD2 (two-site model, apparent) [4]: 10 µM
- KD1 (two-site model, apparent) [5]: 1.8 µM
- KD2 (two-site model, apparent) [5]: 21 µM
- KD1 (two-site model, apparent) [6]: 0.58 µM
- KD2 (two-site model, apparent) [6]: 6 µM
- KD1 (two-site model, apparent) [7]: 1.1 µM
- KD2 (two-site model, apparent) [7]: 7 µM
- KD1 (two-site model, apparent) [8]: 0.65 µM
- KD2 (two-site model, apparent) [8]: 11 µM
- KD1 (two-site model, apparent) [9]: 1.1 µM
- KD2 (two-site model, apparent) [9]: 5 µM
